Measured values: the supplement of paper PMC10065799, “High-throughput profiling of sequence recognition by tyrosine kinases and SH2 domains using bacterial peptide display” (eLife, 2023)

Columns and labels:
[1] = target: FGFR1 (UniProt P11362); assay: phosphorylation enrichment, bacterial display (enrichment ratio); higher = better substrate or ligand; peptides without Tyr show the background
[2] = target: Jak2 (UniProt O60674); assay: as above
[3] = target: MERTK (UniProt Q12866); assay: as above
[4] = tested on: AncSZ; assay: as above
[5] = tested on: c-Src; assay: as above
[6] = target: FGFR3 (UniProt P22607); assay: as above
[7] = target: Hck (UniProt P08631); assay: as above
[8] = tested on: c-Abl (mouse); assay: as above
[9] = tested on: Fer (mouse); assay: as above
[10] = target: EPHB1 (UniProt P54762); assay: as above
[11] = target: Fes (UniProt P07332); assay: as above
[12] = target: EPHB2 (UniProt P29323); assay: as above
[13] = target: Fyn (UniProt P06241); assay: as above
[14] = target: c-Src SH2; assay: SH2 binding enrichment of the phosphorylated peptide, bacterial display (enrichment ratio); higher = better substrate or ligand; peptides without Tyr show the background
[15] = target: Grb2 SH2 (UniProt P62993); assay: as above
[16] = target: SHP2-C SH2; assay: as above
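For SH2 binding enrichment of the phosphorylated peptide, bacterial display in this document: peptide library displayed on the E. coli surface as eCPX fusions, selected cells deep-sequenced, score is each peptide's frequency after selection divided by its frequency in the input.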
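For phosphorylation enrichment, bacterial display in this document: 11-residue human phosphosite peptides and single-mutation variants displayed on the E. coli surface, counted by deep sequencing, each peptide's frequency after selection divided by its frequency in the unselected input library; frequency after pTyr selection over input frequency; kinase dosed for 20-30% of maximal phosphorylation in three min.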

Sequence of Fes (P07332 whole entry, looked up): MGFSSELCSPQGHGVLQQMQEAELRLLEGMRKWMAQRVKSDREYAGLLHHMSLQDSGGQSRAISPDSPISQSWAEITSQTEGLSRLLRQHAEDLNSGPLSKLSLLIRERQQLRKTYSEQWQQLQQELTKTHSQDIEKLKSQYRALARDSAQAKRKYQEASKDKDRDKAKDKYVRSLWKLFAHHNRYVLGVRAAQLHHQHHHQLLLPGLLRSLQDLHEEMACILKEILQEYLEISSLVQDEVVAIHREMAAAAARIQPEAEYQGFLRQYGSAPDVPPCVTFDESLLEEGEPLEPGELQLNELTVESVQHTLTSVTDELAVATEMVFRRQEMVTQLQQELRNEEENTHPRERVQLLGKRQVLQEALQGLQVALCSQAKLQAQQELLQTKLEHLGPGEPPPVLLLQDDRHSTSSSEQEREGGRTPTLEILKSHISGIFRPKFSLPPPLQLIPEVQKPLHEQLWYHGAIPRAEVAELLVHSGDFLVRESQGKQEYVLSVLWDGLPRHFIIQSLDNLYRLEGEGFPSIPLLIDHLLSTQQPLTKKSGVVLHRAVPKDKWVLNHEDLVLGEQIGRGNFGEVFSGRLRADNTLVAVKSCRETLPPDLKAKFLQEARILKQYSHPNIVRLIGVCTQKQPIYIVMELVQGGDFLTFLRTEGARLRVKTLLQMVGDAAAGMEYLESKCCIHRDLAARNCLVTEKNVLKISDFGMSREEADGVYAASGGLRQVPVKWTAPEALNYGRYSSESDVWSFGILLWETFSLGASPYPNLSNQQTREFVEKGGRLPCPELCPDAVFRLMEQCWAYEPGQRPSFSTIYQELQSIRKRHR
Sequence of MERTK (Q12866 whole entry, looked up): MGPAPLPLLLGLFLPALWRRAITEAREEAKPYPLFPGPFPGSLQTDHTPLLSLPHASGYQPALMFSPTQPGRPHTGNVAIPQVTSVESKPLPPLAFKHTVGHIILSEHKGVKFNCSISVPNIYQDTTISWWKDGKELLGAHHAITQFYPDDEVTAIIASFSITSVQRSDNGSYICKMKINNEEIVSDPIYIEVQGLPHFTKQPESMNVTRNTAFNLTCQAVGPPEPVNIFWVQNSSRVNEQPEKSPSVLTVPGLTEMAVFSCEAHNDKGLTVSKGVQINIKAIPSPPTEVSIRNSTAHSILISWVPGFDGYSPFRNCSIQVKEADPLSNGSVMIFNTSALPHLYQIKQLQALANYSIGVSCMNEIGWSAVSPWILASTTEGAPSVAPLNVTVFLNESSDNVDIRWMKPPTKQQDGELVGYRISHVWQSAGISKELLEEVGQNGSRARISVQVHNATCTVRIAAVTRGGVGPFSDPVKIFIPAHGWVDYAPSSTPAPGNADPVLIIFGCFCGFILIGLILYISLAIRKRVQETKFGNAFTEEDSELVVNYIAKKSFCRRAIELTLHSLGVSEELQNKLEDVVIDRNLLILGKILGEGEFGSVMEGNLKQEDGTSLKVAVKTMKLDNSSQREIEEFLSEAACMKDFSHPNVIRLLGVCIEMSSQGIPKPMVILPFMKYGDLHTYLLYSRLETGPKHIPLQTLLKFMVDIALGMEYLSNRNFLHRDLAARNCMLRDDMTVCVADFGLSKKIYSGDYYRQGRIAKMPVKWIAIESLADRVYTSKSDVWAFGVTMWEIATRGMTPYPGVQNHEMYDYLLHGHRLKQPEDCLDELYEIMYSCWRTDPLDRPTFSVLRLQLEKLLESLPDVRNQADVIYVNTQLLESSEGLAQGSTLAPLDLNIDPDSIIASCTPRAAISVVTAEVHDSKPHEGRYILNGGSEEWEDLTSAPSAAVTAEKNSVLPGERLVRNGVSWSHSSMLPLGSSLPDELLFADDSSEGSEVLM
Sequence of Hck (P08631 whole entry, looked up): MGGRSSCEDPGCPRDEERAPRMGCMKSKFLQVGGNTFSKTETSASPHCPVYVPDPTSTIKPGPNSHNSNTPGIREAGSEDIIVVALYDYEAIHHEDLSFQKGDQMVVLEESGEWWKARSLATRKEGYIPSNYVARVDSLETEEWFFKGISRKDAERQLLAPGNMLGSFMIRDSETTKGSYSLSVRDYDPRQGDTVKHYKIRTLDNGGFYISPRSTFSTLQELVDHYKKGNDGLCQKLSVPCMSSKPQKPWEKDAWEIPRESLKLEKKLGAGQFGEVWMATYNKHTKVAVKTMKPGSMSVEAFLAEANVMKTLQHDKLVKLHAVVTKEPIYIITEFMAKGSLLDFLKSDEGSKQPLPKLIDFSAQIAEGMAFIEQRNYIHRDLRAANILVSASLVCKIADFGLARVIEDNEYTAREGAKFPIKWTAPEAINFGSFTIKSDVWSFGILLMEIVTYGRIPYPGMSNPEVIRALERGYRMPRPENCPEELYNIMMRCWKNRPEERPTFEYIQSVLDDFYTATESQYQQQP
Sequence of EPHB2 (P29323 whole entry, looked up): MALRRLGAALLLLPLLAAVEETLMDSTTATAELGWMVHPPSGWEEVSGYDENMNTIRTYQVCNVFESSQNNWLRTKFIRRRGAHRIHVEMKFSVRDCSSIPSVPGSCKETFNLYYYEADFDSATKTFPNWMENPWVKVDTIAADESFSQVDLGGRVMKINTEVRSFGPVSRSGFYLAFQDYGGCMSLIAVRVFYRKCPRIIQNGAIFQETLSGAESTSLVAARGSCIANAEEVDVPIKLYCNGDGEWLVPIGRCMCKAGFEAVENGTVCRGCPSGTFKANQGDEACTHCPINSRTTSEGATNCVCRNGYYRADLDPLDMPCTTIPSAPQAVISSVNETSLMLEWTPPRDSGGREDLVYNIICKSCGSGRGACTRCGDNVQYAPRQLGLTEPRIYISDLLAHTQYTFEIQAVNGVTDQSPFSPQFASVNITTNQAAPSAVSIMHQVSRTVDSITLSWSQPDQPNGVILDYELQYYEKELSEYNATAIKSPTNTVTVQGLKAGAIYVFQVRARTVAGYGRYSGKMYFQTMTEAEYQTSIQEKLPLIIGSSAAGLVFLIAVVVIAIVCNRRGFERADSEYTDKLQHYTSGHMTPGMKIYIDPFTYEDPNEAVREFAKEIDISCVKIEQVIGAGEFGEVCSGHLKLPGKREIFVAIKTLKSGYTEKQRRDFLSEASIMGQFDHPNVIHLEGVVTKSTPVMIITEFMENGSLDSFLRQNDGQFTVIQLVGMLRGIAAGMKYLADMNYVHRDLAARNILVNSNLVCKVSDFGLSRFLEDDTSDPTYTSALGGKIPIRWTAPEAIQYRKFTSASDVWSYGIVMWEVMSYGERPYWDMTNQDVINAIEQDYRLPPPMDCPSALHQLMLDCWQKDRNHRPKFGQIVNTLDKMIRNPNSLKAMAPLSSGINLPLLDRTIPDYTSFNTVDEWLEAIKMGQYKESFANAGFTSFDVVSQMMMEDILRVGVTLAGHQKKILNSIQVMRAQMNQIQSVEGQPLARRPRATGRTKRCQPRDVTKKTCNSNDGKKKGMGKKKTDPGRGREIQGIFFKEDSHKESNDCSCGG
Sequence of EPHB1 (P54762 whole entry, looked up): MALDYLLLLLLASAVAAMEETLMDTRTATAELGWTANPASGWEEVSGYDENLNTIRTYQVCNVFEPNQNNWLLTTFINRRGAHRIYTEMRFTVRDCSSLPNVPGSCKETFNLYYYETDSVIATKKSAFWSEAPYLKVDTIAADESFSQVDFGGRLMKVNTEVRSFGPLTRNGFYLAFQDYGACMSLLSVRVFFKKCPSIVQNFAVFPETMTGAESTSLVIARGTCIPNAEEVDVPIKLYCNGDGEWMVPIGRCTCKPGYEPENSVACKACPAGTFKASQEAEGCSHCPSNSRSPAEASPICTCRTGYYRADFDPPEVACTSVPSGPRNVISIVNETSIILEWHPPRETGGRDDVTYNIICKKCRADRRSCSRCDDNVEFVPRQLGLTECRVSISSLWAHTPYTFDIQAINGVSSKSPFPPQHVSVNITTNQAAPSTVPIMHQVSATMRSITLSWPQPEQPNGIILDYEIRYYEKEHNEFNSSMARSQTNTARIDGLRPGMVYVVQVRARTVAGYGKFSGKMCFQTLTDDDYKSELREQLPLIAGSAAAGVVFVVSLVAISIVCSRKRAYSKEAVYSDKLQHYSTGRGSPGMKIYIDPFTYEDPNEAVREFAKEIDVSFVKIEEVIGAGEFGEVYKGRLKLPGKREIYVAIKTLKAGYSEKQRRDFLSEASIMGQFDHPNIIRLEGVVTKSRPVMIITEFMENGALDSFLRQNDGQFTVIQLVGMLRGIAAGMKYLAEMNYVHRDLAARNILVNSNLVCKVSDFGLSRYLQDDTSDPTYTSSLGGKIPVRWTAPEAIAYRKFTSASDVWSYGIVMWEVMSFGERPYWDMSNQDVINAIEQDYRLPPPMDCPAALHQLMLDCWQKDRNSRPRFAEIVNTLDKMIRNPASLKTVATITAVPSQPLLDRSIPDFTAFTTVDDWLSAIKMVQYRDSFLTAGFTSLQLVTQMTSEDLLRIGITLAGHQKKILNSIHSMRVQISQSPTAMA
Sequence of Fyn (P06241 whole entry, looked up): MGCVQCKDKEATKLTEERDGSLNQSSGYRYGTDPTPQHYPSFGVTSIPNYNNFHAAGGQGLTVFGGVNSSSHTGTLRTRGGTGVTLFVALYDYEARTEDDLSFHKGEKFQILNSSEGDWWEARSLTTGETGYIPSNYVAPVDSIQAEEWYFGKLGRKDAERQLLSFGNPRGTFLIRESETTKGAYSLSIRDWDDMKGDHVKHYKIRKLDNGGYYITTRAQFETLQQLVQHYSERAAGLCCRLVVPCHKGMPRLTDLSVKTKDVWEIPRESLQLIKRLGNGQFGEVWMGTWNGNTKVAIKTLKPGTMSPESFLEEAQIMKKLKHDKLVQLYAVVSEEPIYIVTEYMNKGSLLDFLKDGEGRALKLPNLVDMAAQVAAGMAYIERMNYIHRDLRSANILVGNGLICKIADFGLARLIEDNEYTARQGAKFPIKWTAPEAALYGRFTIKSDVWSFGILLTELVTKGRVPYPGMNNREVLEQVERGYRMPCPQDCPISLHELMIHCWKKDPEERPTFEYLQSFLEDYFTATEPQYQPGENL

Row | Sequence | SH2 binding enrichment [14] | SH2 binding enrichment [15] | SH2 binding enrichment [16] | phosphorylation enrichment [1] | phosphorylation enrichment [2] | phosphorylation enrichment [3] | phosphorylation enrichment [4] | phosphorylation enrichment [5] | phosphorylation enrichment [6] | phosphorylation enrichment [7] | phosphorylation enrichment [8] | phosphorylation enrichment [9] | phosphorylation enrichment [10] | phosphorylation enrichment [11] | phosphorylation enrichment [12] | phosphorylation enrichment [13]
1 | SIIKDSFHRGA [GATM_Y203_Y203S] | 0.482 | 0.838 | 0.829 | 0.379 | 0.404 | 0.362 | 0.423 | 0.387 | 0.462 | 0.394 | 0.497 | 0.403 | 0.342 | 0.414 | 0.334 | 0.369
2 | PADCRYYAFPQ [GAMT_Y222] | 3.02 | 0.898 | 0.847 | 10.9 | 6.5 | 14.4 | 3.91 | 4.71 | 8.15 | 3.84 | 5.14 | 10.4 | 12.1 | 1.7 | 12.2 | 2.3
3 | TLQSMYGCDVG [HLA-B_Y123] | 0.559 | 1.08 | 0.812 | 0.497 | 0.843 | 0.406 | 0.935 | 0.661 | 0.667 | 0.525 | 0.639 | 0.612 | 0.598 | 0.979 | 0.71 | 0.552
4 | VNKGGYFSVNL [C3orf33_Y164_S160N] | 1.4 | 0.648 | 0.725 | 0.599 | 1.23 | 0.412 | 0.832 | 0.398 | 0.603 | 0.411 | 0.688 | 0.395 | 0.553 | 1.05 | 0.411 | 0.456
5 | KLVQLYDVCTK [BTK_Y461_G462D] | 0.881 | 0.984 | 0.865 | 0.58 | 0.79 | 7.27 | 0.994 | 1.56 | 0.742 | 4.92 | 1.25 | 2.56 | 12.1 | 1.03 | 11.7 | 1.37
6 | KTTGGYAGGLS [KRT8_Y419_S417G] | 0.416 | 0.853 | 0.575 | 0.454 | 0.701 | 0.523 | 0.506 | 0.583 | 0.422 | 0.454 | 0.649 | 0.419 | 0.34 | 0.592 | 0.473 | 0.413
7 | GKGGSYSKAES [HLA-E_Y341_W346S] | 0.389 | 0.73 | 0.499 | 0.391 | 0.386 | 0.447 | 0.485 | 0.423 | 0.394 | 0.359 | 0.462 | 0.307 | 0.3 | 0.514 | 0.295 | 0.375
8 | YVFSFYHAFSG [ACTN4_Y265_S262F] | 0.889 | 1.19 | 1.23 | 0.921 | 1.44 | 3.14 | 1.37 | 0.964 | 1.13 | 0.835 | 1.1 | 0.69 | 1.15 | 1.43 | 0.825 | 0.692
9 | TSAEGYQDVRD [ABLIM1_Y439_P434T] | 4.85 | 0.909 | 0.779 | 0.77 | 1.16 | 0.517 | 1.17 | 0.602 | 0.659 | 0.691 | 0.766 | 0.551 | 0.73 | 1.36 | 0.774 | 0.679
10 | IHSGIYYKPES [L2HGDH_Y102] | 0.67 | 0.762 | 0.539 | 1.53 | 3.48 | 11.7 | 1.45 | 4.54 | 1.38 | 5.38 | 18.7 | 0.943 | 3.93 | 0.752 | 2.02 | 6
11 | SGGCSYGSGGG [KRT1_Y539_G537C] | 0.462 | 0.782 | 0.655 | 0.402 | 0.773 | 0.346 | 0.803 | 0.394 | 0.561 | 0.446 | 0.637 | 0.462 | 0.475 | 0.916 | 0.478 | 0.381
12 | VQEDIYDEFVE [ALDH2_Y332] | 0.437 | 0.752 | 0.408 | 0.459 | 1.34 | 0.542 | 1.2 | 1.87 | 0.731 | 1.15 | 0.859 | 0.658 | 0.728 | 1.3 | 0.715 | 1.89
13 | EKMWSYTKSAE [GRIA3_Y705_M706T] | 0.473 | 0.869 | 0.937 | 0.419 | 0.592 | 0.44 | 0.658 | 0.464 | 0.529 | 0.451 | 0.68 | 0.411 | 0.426 | 0.748 | 0.487 | 0.425
14 | VTPVMYTFDEF [COL10A1_Y623_G618V_YF] | 0.772 | 0.93 | 0.698 | 0.591 | 1.02 | 0.962 | 1.03 | 0.715 | 0.654 | 0.531 | 0.662 | 0.458 | 0.665 | 1.19 | 0.668 | 0.737
15 | PRPAGYPSMVS [CACNA1C_Y1832_T1835M] | 0.312 | 0.755 | 0.507 | 0.386 | 0.475 | 0.365 | 0.678 | 0.416 | 0.364 | 0.456 | 0.435 | 0.412 | 0.393 | 0.668 | 0.561 | 0.48
16 | EEGRVYVYRLS [ITGAE_Y549] | 0.66 | 0.934 | 2.07 | 0.496 | 0.997 | 0.379 | 0.904 | 0.698 | 0.76 | 0.548 | 0.713 | 0.505 | 0.595 | 1.11 | 0.504 | 0.616
17 | EVESPYEVHDF [GIGYF2_Y1168_YF] | 0.486 | 0.785 | 0.832 | 0.593 | 1.23 | 0.974 | 1.93 | 5.45 | 0.81 | 1.44 | 0.825 | 12.3 | 0.837 | 1.3 | 0.922 | 5.32
18 | TDLAFYLVCKG [ASL_Y376_R379C_YF] | 0.388 | 0.732 | 0.461 | 0.551 | 1.57 | 0.446 | 1.31 | 0.48 | 0.94 | 0.547 | 1.14 | 0.647 | 0.79 | 1.7 | 0.593 | 0.411
19 | MTRDIYRASYY [ALK_Y1278_A1274T] | 0.786 | 0.876 | 0.704 | 0.844 | 0.63 | 0.827 | 0.725 | 1.66 | 0.676 | 1.17 | 2.42 | 0.462 | 0.598 | 0.702 | 0.579 | 0.888
20 | GEVLVYAEDPA [FLNA_Y319_V320A] | 0.549 | 0.874 | 1 | 0.496 | 0.814 | 0.408 | 1.21 | 0.553 | 0.704 | 0.543 | 0.496 | 0.385 | 0.607 | 1.05 | 0.53 | 0.593
21 | DAGTDYVGISC [FREM2_Y2061_R2066C] | 0.658 | 0.991 | 0.898 | 1.05 | 0.732 | 0.4 | 1.31 | 0.546 | 0.959 | 0.478 | 0.688 | 0.558 | 0.578 | 0.961 | 0.619 | 0.522

Continued, in another order:

Row | SH2 binding enrichment [14] | SH2 binding enrichment [15] | SH2 binding enrichment [16] | Sequence | phosphorylation enrichment [1] | phosphorylation enrichment [2] | phosphorylation enrichment [3] | phosphorylation enrichment [4] | phosphorylation enrichment [5] | phosphorylation enrichment [6] | phosphorylation enrichment [7] | phosphorylation enrichment [8] | phosphorylation enrichment [9] | phosphorylation enrichment [10] | phosphorylation enrichment [11] | phosphorylation enrichment [12] | phosphorylation enrichment [13]
22 | 0.446 | 0.682 | 0.524 | PGVNFYFQVSA | 0.557 | 1.61 | 0.445 | 1.41 | 0.523 | 1 | 0.526 | 1.29 | 0.724 | 1.27 | 1.93 | 1.24 | 0.414
23 | 1.07 | 1.41 | 1.67 | SPFMLYQFLKQ [RPAP3_Y567_D564Y_YF] | 1.14 | 1.07 | 4.11 | 1.15 | 0.867 | 0.99 | 4.2 | 0.938 | 3.37 | 4.55 | 1.34 | 2.73 | 0.621
24 | 0.449 | 0.907 | 0.793 | LKYAIYFEARE [LAMA2_Y1258] | 0.938 | 3.01 | 0.907 | 2.42 | 1.49 | 1.64 | 1.67 | 1.94 | 0.822 | 1.59 | 2.41 | 1.4 | 1.21
25 | 0.75 | 0.665 | 1.28 | LREKVYASLEA [RXRA_Y397] | 0.84 | 1.21 | 2.22 | 1.63 | 6.94 | 0.944 | 2.9 | 5.68 | 0.892 | 0.823 | 1.9 | 0.862 | 6.2
26 | 0.505 | 0.997 | 0.733 | QNAGDYFDLFG [PTPN11_Y62_T59A_YF] | 25.5 | 13.4 | 1.71 | 6.62 | 1.2 | 24.5 | 1.02 | 1.44 | 0.681 | 21.9 | 1.57 | 16.2 | 0.516
27 | 0.551 | 0.854 | 0.624 | EYLQKYKGFKI [SYNE1_Y6953] | 0.256 | 0.707 | 0.438 | 0.733 | 0.323 | 0.377 | 0.345 | 0.569 | 0.407 | 0.427 | 0.868 | 0.332 | 0.275
28 | 0.522 | 0.618 | 0.483 | CPEARYNRSPI [PTAR1_Y42] | 0.419 | 0.641 | 0.433 | 0.699 | 0.399 | 0.617 | 0.492 | 0.55 | 0.435 | 0.485 | 0.859 | 0.458 | 0.441
29 | 0.546 | 0.832 | 0.588 | IFRAAYFGVFD [SLC25A4_Y191_YF] | 0.499 | 0.891 | 0.447 | 0.985 | 0.438 | 0.717 | 0.457 | 0.761 | 0.523 | 0.751 | 1.25 | 0.594 | 0.497
30 | 0.777 | 0.747 | 0.829 | IHSGIYFKPES [L2HGDH_Y102_YF] | 0.702 | 2.59 | 6.44 | 1.39 | 1.96 | 0.744 | 2.14 | 8.52 | 0.497 | 0.996 | 0.887 | 0.674 | 1.72
31 | 0.41 | 0.763 | 0.598 | FSKDIYKRVTG [PANK2_Y405_N404I_YF] | 0.431 | 0.407 | 0.334 | 0.516 | 0.398 | 0.413 | 0.423 | 0.529 | 0.355 | 0.218 | 0.58 | 0.382 | 0.444
32 | 0.44 | 0.912 | 0.639 | ETMNKYDLSGR [MYEF2_Y164] | 0.421 | 0.731 | 0.633 | 0.667 | 0.398 | 0.498 | 0.448 | 0.507 | 0.422 | 0.383 | 0.696 | 0.391 | 0.434
33 | 0.594 | 1.15 | 0.646 | SEDANYKRVSC [TTC3_Y1288] | 0.418 | 1.06 | 0.449 | 0.886 | 0.442 | 0.696 | 0.532 | 0.82 | 0.491 | 0.558 | 1.02 | 0.55 | 0.612
